Laboratory results: US7901879B2, “Lactoferrin in the treatment of malignant neoplasms and other hyperproliferative diseases” (Agennix Incorporated, priority 2002, dated 2011)
Several values for one entry are separate records, joined by “and”; a condition that tells them apart may be missing. Equal values may be shown once. Marks after values point to notes of the source that are not given here.

Columns and labels:
[1] = test system: Human squamous cell carcinoma (O12); assay: Tumor growth inhibition by rhLF in O12 tumor model in mice (Example 1); type: in vivo, athymic nude mice
Experimental: Human squamous cell carcinoma (O12) was used. The cells were injected into the right flank of athymic nude mice. rhLF was administered either intratumorally (49 animals, 7 doses ranging from 0.05 μg to 125 μg per dose), intravenously (7 animals, 125 ug/dose) or orally (7 animals 20 mg/dose). Control animals were treated with only the vehicle; no rhLF was administered to the control animals. rhLF was administered twice a day for either five days (intravenous group) or eight days (all other groups) starting 11 days after inoculation with tumor cells to allow formation of established tumors.
The efficacy of treatment was evaluated by measuring the solid tumor size during and at the end of the experiment; the body weights were also determined at the time of tumor measurements.

IL-18 = IL-18 levels in small intestine and serum after oral rhLF or bLF (cytokine ELISA); type: in vivo, mice; settings: for IL-18 Intestinal Extract / IL-18 Serum: 24 h after last dose
Experimental: Recombinant human lactoferrin and bovine lactoferrin were orally administered to mice, and the production of IL-18 in the small intestine was measured.
Mice were treated for three days daily with 65 mg/kg/day of rhLF, 300 mg/kg/day of rhLF or 300 mg/kg/day of bLF. For a control, mice were only administered the pharmaceutical carrier. Twenty-four hours following administration of the LF or control for 3 days, animals were weighed and blood and serum were collected. Serum was used for cytokine ELISA assays.
Also, at these time points, animals were sacrificed and the small intestinal tissue was removed for further analysis. Small intestinal epithelium was homogenized using a lysis buffer consisting of PBS, 1% Nonidet P-40, 0.5% sodium deoxycholate, and 0.1% sodium dodecyl sulphate containing 10 μg/ml PhenylMetheylsulfonyl fluoride. Homogenate was centrifuged at 15,000 rpm for 10 minutes and the supernatant stored at −80 C. till it was tested for IL-18 levels.

[2] = test system: NK-activity against YAC targets; assay: Ex vivo NK activity of spleen NK cells against YAC targets (LDH release) after oral rhLF; type: in vivo, Balb/c naïve mice; settings: for % Cytotoxicity Increased over ctrl: rhLF minus placebo; for % Cytotoxicity Final: oral 300 mg/kg/day 3 days
Experimental: Balb/c naïve mice were treated orally with rhLF or placebo once a day for 3 days (see Table 4).
(§1) On day 4, mice were sacrificed and spleens were collected. NK cells were separated using a magnetic bead cell sorting assay (MACS anti-NK-DX5) and counted. Cells were then tested in vitro for NK-activity against YAC targets using a lactate dehydrogenase (LDH) release test.
as §1, with “Balb/c naïve mice were treated orally with rhLF or placebo once a” for “On”, “for 3 days. One day later (day 4),” for “4,”, “spleens” for “spleens were”

metastatic cancer = assay: Oral rhLF in human patients with metastatic cancer, tumor size by CT; type: in vivo
Experimental: Recombinant human lactoferrin was orally administered to human patients with a range of metastatic cancer types that had failed standard chemotherapy in two different studies conducted in multiple centers in four countries (Argentina, Brazil, Chile, U.S.) RhLF was administered at doses of 1.5 to 9 grams daily in two divided doses in cycles of 14 each with a 14 day gap.
Tumor size progression was monitored through CT scans and tumor markers where available. CT scans were performed at baseline and after each 8-week period once treatment was initiated, and also compared with a pre-baseline scan conducted prior to enrollment in the study. Tumor markers are measured every 4 weeks. Blood samples were collected to measure subclasses of circulating lymphocytes and NK cell activity. Plasma, serum and blood cell extract samples were collected to measure circulating IL-18, IL-1, IL-2, and IL-4, IL-5, IL-10, IL-12 and IFN-γ.

[3] = test system: O12 human oropharyngeal squamous cell carcinoma tumor cells; assay: Intratumoral rhLF in O12 tumors in nude mice (Example 17); type: in vivo, athymic nude mice
Experimental: O12 human oropharyngeal squamous cell carcinoma tumor cells were injected to the right flank of athymic nude mice. Recombinant human lactoferrin and vehicle controls were dosed via intratumoral injection. Each animal was administered different concentrations of rhLF in 50 μL doses consisting of four separate injections of approximately 12.5 μL of the dose, at different directions and angles (approximately S/N/E/W) to ensure that the dose was distributed evenly throughout the tumor (fanning).
In this study, rhLF was administered directly into the tumor. Each animal was tracked daily for tumor growth by external caliper measurements of the protruding tumor.

circulating lymphocytes = assay: Circulating lymphocytes after intratumoral rhLF in tumor-bearing mice (Example 18); type: in vivo, C3H/HeJ mice
Experimental: Normal C3H/HeJ mice were implanted with one of two mouse tumors following the methodology described in Example 17. Tumors used were SCCVII and RIF mouse tumor cell lines. Following establishment of the tumors in the mice, tumors were injected intratumorally daily for 4 days with 250 or 500 μg rhLF per dose or with vehicle control. Twenty four hours following the last intratumoral injection, animals were sacrificed and the blood examined for lymphocyte populations. The number of circulating lymphocytes were increased by 34% to 56% relative to the placebo treated control animals (Table 14).

[4] = oral 65 mg/kg rhLF versus 300 mg/kg bLF
[5] = oral 65 mg/kg/day for three days
[6] = oral 300 mg/kg rhLF versus 300 mg/kg bLF
[7] = oral 300 mg/kg/day for three days
[8] = oral, rhLF at both doses, bLF 300 mg/kg/day
[9] = intratumoral 250 or 500 μg per dose daily for 4 days, blood 24 h after last injection

B1: Recombinant human lactoferrin (protein, UniProt P02788 20-710, looked up)
Lactotransferrin: GRRRSVQWCAVSQPEATKCFQWQRNMRKVRGPPVSCIKRDSPIQCIQAIAENRADAVTLDGGFIYEAGLAPYKLRPVAAEVYGTERQPRTHYYAVAVVKKGGSFQLNELQGLKSCHTGLRRTAGWNVPIGTLRPFLNWTGPPEPIEAAVARFFSASCVPGADKGQFPNLCRLCAGTGENKCAFSSQEPYFSYSGAFKCLRDGAGDVAFIRESTVFEDLSDEAERDEYELLCPDNTRKPVDKFKDCHLARVPSHAVVARSVNGKEDAIWNLLRQAQEKFGKDKSPKFQLFGSPSGQKDLLFKDSAIGFSRVPPRIDSGLYLGSGYFTAIQNLRKSEEEVAARRARVVWCAVGEQELRKCNQWSGLSEGSVTCSSASTTEDCIALVLKGEADAMSLDGGYVYTAGKCGLVPVLAENYKSQQSSDPDPNCVDRPVEGYLAVAVVRRSDTSLTWNSVKGKKSCHTAVDRTAGWNIPMGLLFNQTGSCKFDEYFSQSCAPGSDPRSNLCALCIGDEQGENKCVPNSNERYYGYTGAFRCLAENAGDVAFVKDVTVLQNTDGNNNEAWAKDLKLADFALLCLDGKRKPVTEARSCHLAMAPNHAVVSRMDKVERLKQVLLHQQAKFGRNGSDCPDKFCLFQSETKNLLFNDNTECLARLHGKTTYEKYLGPQYVAGITNLKKCSTSPLLEACEFLRK
notes: human lactoferrin produced recombinantly
- Inhibition Relative to Placebo ([1]; intratumoral, twice a day for eight days, 0.05 μg to 125 μg per dose, Day 19): 28%
- Inhibition Relative to Placebo ([1]; intratumoral, twice a day for eight days, 0.05 μg to 125 μg per dose, Day 28): 46%
- Inhibition Relative to Placebo ([1]; intravenous 125 ug/dose twice a day for five days, Day 19): 55%
- Inhibition Relative to Placebo ([1]; intravenous 125 ug/dose twice a day for five days, Day 28): 65%
- Inhibition Relative to Placebo ([1]; oral 20 mg/dose twice a day for eight days, Day 19): 76%
- Inhibition Relative to Placebo ([1]; oral 20 mg/dose twice a day for eight days, Day 28): 80%
- IL-18 Intestinal Extract % Increase Over Control (IL-18; oral 65 mg/kg): 725%
- IL-18 Serum % Increase Over Control (IL-18; oral 65 mg/kg): 84%
- IL-18 Intestinal Extract % Increase Over Blf (IL-18; [4]): 75%
- IL-18 Serum % Increase Over Blf (IL-18; [4]): 94%
- IL-18 Intestinal Extract (IL-18; [5]): 7,879 pg
- IL-18 Serum (IL-18; [5]): 259 pg
- IL-18 Intestinal Extract % Increase Over Control (IL-18; oral 300 mg/kg): 775%
- IL-18 Serum % Increase Over Control (IL-18; oral 300 mg/kg): 132%
- IL-18 Intestinal Extract % Increase Over Blf (IL-18; [6]): 85%
- IL-18 Serum % Increase Over Blf (IL-18; [6]): 145%
- IL-18 Intestinal Extract (IL-18; [7]): 8,350 pg
- IL-18 Serum (IL-18; [7]): 328 pg
- effect on amount of IL-18 in the intestinal extract (IL-18; [8]): significantly enhanced
- effect on amount of IL-18 in the serum (IL-18; [8]): significantly enhanced
- relative increase of NK activity over placebo-treated animals ([2]; 30:1 E:T ratio, p<0.05): 243%
- % Cytotoxicity Increased over ctrl ([2]; E:T ratio 3.7:1): 0%
- % Cytotoxicity Increased over ctrl ([2]; E:T ratio 7.5:1): 0%
- % Cytotoxicity Increased over ctrl ([2]; E:T ratio 15:1): 1.3%
- % Cytotoxicity Increased over ctrl ([2]; E:T ratio 30:1): 7** %
- % Cytotoxicity Final ([2]; E:T ratio 3.7:1): 0%
- % Cytotoxicity Final ([2]; E:T ratio 7.5:1): 0.44%
- % Cytotoxicity Final ([2]; E:T ratio 15:1): 4.12%
- % Cytotoxicity Final ([2]; E:T ratio 30:1, 300 mg/kg/day): 10% and 9.81%
- % Cytotoxicity Final ([2]; E:T ratio 30:1, listed as RhLF, 300 mg/kg/day): 9.81%
- Post Treatment 1 % Growth (metastatic cancer; Patient # 007, Lung, 7.5 weeks, pretreatment 160% (5.5 weeks)): 13% (7.5)
- Post Treatment 2 % Growth (metastatic cancer; Patient # 007, Lung, 8.5 weeks): 12% (8.5)
- Post Treatment 2 % Growth (metastatic cancer; Patient # 102, Ovarian, 8.5 weeks): −7% (8.5)
- Post Treatment 1 % Growth (metastatic cancer; Patient # 102, Ovarian, 10.5 weeks, pretreatment 30% (21 weeks)): −5% (10.5)
- Post Treatment 2 % Growth (metastatic cancer; Patient # 104, Gastric, 7 weeks): −5% (7)
- Post Treatment 1 % Growth (metastatic cancer; Patient # 104, Gastric, 10 weeks, pretreatment 25% (5.5 weeks)): 10% (10)
- Post Treatment 1 % Growth (metastatic cancer; Patient # 106, Melanoma, 11 weeks, pretreatment 24% (19 weeks)): −18% (11)
- Post Treatment 2 % Growth (metastatic cancer; Patient # 204, Breast, 6.5 weeks): 0% (6.5)
- Post Treatment 1 % Growth (metastatic cancer; Patient # 204, Breast, 10 weeks, pretreatment 40% (8 weeks)): 0% (10)
- patients with stable disease by the RECIST criteria at the first post-treatment scan (metastatic cancer; nine of nineteen evaluable patients, oral 1.5 to 9 grams daily): 47%
- reduction of rates of tumor growth versus pooled placebo ([3]; Group A, single intratumoral dose, day 11 after administration, p<0.05): 50%
- reduction of rates of tumor growth versus pooled control group ([3]; Group C, intratumoral twice daily for 8 days, p<0.01): 56%
- Number of Cells CD3+ (circulating lymphocytes; [9]): 3291
- Number of Cells CD4+ (circulating lymphocytes; [9]): 2621
- Number of Cells CD8+ (circulating lymphocytes; [9]): 1054
- Increase with rhLF, CD3+ (circulating lymphocytes; relative to placebo): 56%
- Increase with rhLF, CD4+ (circulating lymphocytes; relative to placebo): 46%
- Increase with rhLF, CD8+ (circulating lymphocytes; relative to placebo): 34%
